Substitutions are numbered along the chain they refer to.

What is called Kd is the equilibrium constant for the complex coming apart. As usually defined, the koff is the rate constant with which the complex falls apart. What is called kon is the second-order rate constant of association.

The target in the test is T1, recombinant human TIGIT (human, UniProt Q495A1 22-141, limits assumed).
T1 construct: recombinant human TIGIT used in Carterra SPR; also called hTIGIT
T1 sequence (looked up): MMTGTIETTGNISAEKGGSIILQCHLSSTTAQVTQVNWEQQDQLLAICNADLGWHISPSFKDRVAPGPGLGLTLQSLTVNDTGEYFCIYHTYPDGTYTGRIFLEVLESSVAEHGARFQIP
Description: SPR Carterra, average. The protocol: Binding affinities of VHH-Fc proteins to recombinant human TIGIT were measured by SPR using a Carterra instrument (Table 10A). […] Average values reported from measurements from 1-2 samples.

B1: TIGIT-SC211 (Fc fusion)
VHH: EVQLVESGGGLVQPGGSLRLSCAASGFSFSMYVMGWFRQAPGKEREFVAAIWRSGTLKAYADSVKGRFTISADNSKNTAYLQMNSLKPGDTAVYYCARDHRAMVAPFDYWGQGTLVTVSS
notes: VHH-Fc fusion in assay
In the case of B1, the dissociation constant (Kd) is 13 nM, the koff worked out at 8.53e-05 s⁻¹ and the on-rate (kon) was determined as 6540 M⁻¹ s⁻¹.

B2: TIGIT-SC9 (Fc fusion)
VHH: EVQLVESGGGLVQPGGSLRLSCAASGNTFSGGFMGWFRQAPGKEREWVASVLRGGYTWYADSVKGRFTISADNSKNTAYLQMNSLKPEDTAVYYCVNGYSYGRDYWGQGTLVTVSS
notes: VHH-Fc fusion in assay
For B2, the Kd worked out at 9.35 nM, the koff is 0.00159 s⁻¹ and the on-rate constant (kon) came out at 268000 M⁻¹ s⁻¹.

B3: TIGIT-SC100 (Fc fusion)
VHH: EVQLVESGGGLVQPGGSLRLSCAASGRTLSDRAMGWFRQAPGKEREFVAAITDNGGSTYYADSVKGRFTISADNSKNTAYLQMNSLKPEDTAVYYCARWYSSSGDYYYMDVWGQGTLVTVSS
notes: VHH-Fc fusion in assay
As for B3, the Kd was 15.1 nM, the off-rate constant (koff) was found to be 0.00183 s⁻¹ and the on-rate constant (kon) came out at 122000 M⁻¹ s⁻¹.

B4: TIGIT-SC101 (Fc fusion)
VHH: B3 VHH with L29F, D31S, R32Y, T52D, D53W, N54S, G55D
notes: VHH-Fc fusion in assay
With B4, the Kd is 73.4 nM, the dissociation rate constant (koff) stood at 0.00421 s⁻¹ and the kon was determined as 67800 M⁻¹ s⁻¹.

B5: TIGIT-SC70 (Fc fusion)
VHH: EVQLVESGGGLVQPGGSLRLSCAASGRTFSSFAMGWFRQAPGKEREFVAAISGSGEDTYYADSVKGRFTISADNSKNTAYLQMNSLKPEDTAVYYCARWRLDRRQGFYYAMDVWGQGTLVTVSS
notes: VHH-Fc fusion in assay
B5: the Kd turned out to be 11.2 nM, the koff stood at 0.00359 s⁻¹ and the kon was determined as 321000 M⁻¹ s⁻¹.

B6: TIGIT-SC104 (Fc fusion)
VHH: EVQLVESGGGLVQPGGSLRLSCAASGFTFSTYTMGWFRQAPGKEREFVAAISPSGNTYYADSVKGRFTISADNSKNTAYLQMNSLKPEDTAVYYCARWGGITFGGVYPLDYWGQGTLVTVSS
notes: VHH-Fc fusion in assay
For the molecule B6, the Kd was determined as 15.2 nM, the koff was 0.00375 s⁻¹ and the kon was determined as 247000 M⁻¹ s⁻¹.

B7: TIGIT-SC71 (Fc fusion)
VHH: EVQLVESGGGLVQPGGSLRLSCAASGSIRSLNAMGWFRQAPGKEREFVAAINWDSARTYYADSVKGRFTISADNSKNTAYLQMNSLKPEDTAVYYCARWSAKRHSDTMTYYMDVWGQGTLVTVSS
notes: VHH-Fc fusion in assay
For the molecule B7, the dissociation constant (Kd) was 10.5 nM, the koff was found to be 0.00436 s⁻¹ and the kon was found to be 413000 M⁻¹ s⁻¹.

B8: TIGIT-SC179 (Fc fusion)
VHH: EVQLVESGGGLVQPGGSLRLSCAASGFTFSPSWMGWFRQAPGKEREWVASVLRGGYTWYADSVKGRFTISADNSKNTAYLQMNSLKPEDTAVYYCASEVASGETDYWGQGTLVTVSS
notes: VHH-Fc fusion in assay
For B8, the dissociation constant (Kd) is 51.1 nM, the off-rate (koff) is 0.00269 s⁻¹ and the association rate constant (kon) turned out to be 50400 M⁻¹ s⁻¹.

B9: TIGIT-SC168 (Fc fusion)
VHH: EVQLVESGGGLVQPGGSLRLSCAASGFTFDRSWMGWFRQAPGKEREWVASVLRGGYAWYADSVKGRFTISADNSKNTAYLQMSSLKPEDTAVYYCAREGSGYASDYWGQGTLVTVSS
notes: VHH-Fc fusion in assay
For B9, the Kd turned out to be 83.6 nM, the off-rate (koff) worked out at 0.00254 s⁻¹ and the kon is 30400 M⁻¹ s⁻¹.

B10: TIGIT-SC178 (Fc fusion)
VHH: B8 VHH with F29L
notes: VHH-Fc fusion in assay
As to B10, the Kd turned out to be 296 nM, the off-rate (koff) was found to be 0.0776 s⁻¹ and the kon turned out to be 262000 M⁻¹ s⁻¹.

B11: TIGIT-SC184 (Fc fusion)
VHH: EVQLVESGGGLVQPGGSLRLSCAASGFTFSPSWMGWFRQAPGKEREWVASVLRGGYTWYADSVKGRFTISADNSKNTAYLQMNSLKPEDTAVYYCTTDRGYNWNYDWGQGTLVTVSS
notes: VHH-Fc fusion in assay
Consider B11, for which the equilibrium dissociation constant (Kd) turned out to be 12.7 nM, the off-rate (koff) came to 0.014 s⁻¹ and the association rate constant (kon) was determined as 1.11e+06 M⁻¹ s⁻¹.

B12: TIGIT-SC166 (Fc fusion)
VHH: B9 VHH with A57T, S83N
notes: VHH-Fc fusion in assay
On to B12, for which the Kd turned out to be 24.9 nM, the off-rate constant (koff) was 0.00147 s⁻¹ and the association rate constant (kon) came out at 58400 M⁻¹ s⁻¹.

B13: TIGIT-SC163 (Fc fusion)
VHH: B9 VHH with A57T, S83N, R97T, E98D, G99K, S100R, Y102P, A103H, S104P
notes: VHH-Fc fusion in assay
Consider B13, for which the dissociation constant Kd came out at 86.4 nM, the koff was found to be 0.00269 s⁻¹ and the kon amounted to 38400 M⁻¹ s⁻¹.

B14: TIGIT-SC7 (Fc fusion)
VHH: EVQLVESGGGLVQPGGSLRLSCAASGRSFSMYVMGWFRQAPGKEREGVSFISGSDGSTLYADSVKGRFTISADNSKNTAYLQMNSLKPEDTAVYYCARGSIAARPVFFDYWGQGTLVTVSS
notes: VHH-Fc fusion in assay
Turning to B14, the Kd was determined as 12.1 nM, the koff turned out to be 0.00372 s⁻¹ and the kon came to 306000 M⁻¹ s⁻¹.

B15: TIGIT-SC49 (Fc fusion)
VHH: EVQLVESGGGLVQPGGSLRLSCAASGRTFIGYHMGWFRQAPGKEREFVAAISWTGESTLYADSVKGRFTISADNSKNTAYLQMNSLKPEDTAVYYCARDDYGDYRRYFQHWGQGTLVTVSS
notes: VHH-Fc fusion in assay
As to B15, the Kd came to 14.4 nM, the koff turned out to be 0.00102 s⁻¹ and the association rate constant (kon) stood at 129000 M⁻¹ s⁻¹.

B16: TIGIT-SC81 (Fc fusion)
VHH: EVQLVESGGGLVQPGGSLRLSCAASGRSFKDDAMGWFRQAPGKEREFVAAISWSGDSTHYADSVKGRFTISADNSKNTAYLQMNSLKPEDTAVYYCARWVWASGTYWIDYWGQGTLVTVSS
notes: VHH-Fc fusion in assay
On to B16, for which the Kd was determined as 15.3 nM, the koff was 0.00233 s⁻¹ and the association rate constant (kon) worked out at 169000 M⁻¹ s⁻¹.

B17: TIGIT-SC40 (Fc fusion)
VHH: EVQLVESGGGLVQPGGSLRLSCAASGFSFDRWAMGWFRQAPGKERELVARISWNGGSTYYADSVKGRFTISADNSKNTAYLQMNSLKPEDTAVYYCARDDGWLQFMHWGQGTLVTVSS
notes: VHH-Fc fusion in assay
Consider B17, for which the Kd is 11.4 nM, the dissociation rate constant (koff) worked out at 0.0015 s⁻¹ and the on-rate (kon) came out at 137000 M⁻¹ s⁻¹.

B18: TIGIT-SC55 (Fc fusion)
VHH: EVQLVESGGGLVQPGGSLRLSCAASGFPFDDYAMGWFRQAPGKERELVAVIRWTGMNTHYADSVKGRFTISADNSKNTAYLQMNSLKPEDTAVYYCAKGIAVAGAFDYWGQGTLVTVSS
notes: VHH-Fc fusion in assay
Turning to B18, the Kd turned out to be 28.5 nM, the koff was found to be 0.00231 s⁻¹ and the kon was determined as 90600 M⁻¹ s⁻¹.

B19: TIGIT-SC43 (Fc fusion)
VHH: EVQLVESGGGLVQPGGSLRLSCAASGFTFADYAMGWFRQAPGKEREMVAAIGWNSGTTEYADSVKGRFTISADNSKNTAYLQMNSLKPEDTAVYYCARDTNGWFFDFWGQGTLVTVSS
notes: VHH-Fc fusion in assay
As to B19, the dissociation constant (Kd) is 12 nM, the koff stood at 0.0013 s⁻¹ and the kon came out at 112000 M⁻¹ s⁻¹.

B20: TIGIT-SC122 (Fc fusion)
VHH: EVQLVESGGGLVQPGGSLRLSCAASGFSFDDYVMGWFRQAPGKEREFVAAISMSGGYTHYADSVKGRFTISADNSKNTAYLQMNSLKPEDTAVYYCAREGYYGSGSYLVYWGQGTLVTVSS
notes: VHH-Fc fusion in assay
For B20, the dissociation constant (Kd) worked out at 10.7 nM, the koff was found to be 0.00217 s⁻¹ and the kon was found to be 524000 M⁻¹ s⁻¹.

B21: TIGIT-SC123 (Fc fusion)
VHH: B20 VHH with F27S, S28I, D30S, D31G, Y32N, V33T, M53W, G56A, H59E
notes: VHH-Fc fusion in assay
For B21, the dissociation constant Kd worked out at 47.3 nM, the off-rate constant (koff) worked out at 0.00232 s⁻¹ and the kon was determined as 49100 M⁻¹ s⁻¹.

B22: TIGIT-SC69 (Fc fusion)
VHH: EVQLVESGGGLVQPGGSLRLSCAASGGTFNGRAMGWFRQAPGKEREFVAAISSIGDTYYADSVKGRFTISADNSKNTAYLQMNSLKPEDTAVYYCARWRLDRRQGFYYAMDVWGQGTLVTVSS
notes: VHH-Fc fusion in assay
B22: the Kd came out at 12.6 nM, the koff was determined as 0.00276 s⁻¹ and the kon is 219000 M⁻¹ s⁻¹.

B23: TIGIT-SC8 (Fc fusion)
VHH: EVQLVESGGGLVQPGGSLRLSCAASGFAFSSYAMGWFRQAPGKEREFVARITWNGGSAYYADSVKGRFTISADNSKNTAYLQMNSLKPEDTAVYYCAAGATGWFDPWGQGTLVTVSS
notes: VHH-Fc fusion in assay
As for B23, the dissociation constant Kd came to 14.6 nM, the koff is 0.000753 s⁻¹ and the kon turned out to be 156000 M⁻¹ s⁻¹.

B24: TIGIT-SC212 (Fc fusion)
VHH: EVQLVESGGGLVQPGGSLRLSCAASGFLFDSYAMGWFRQAPGKEREFVAAIWRSGTLKAYADSVKGRFTISADNSKNTAYLQMNSLKPEDTAVYYCARWVGASGDYWIDYWGQGTLVTVSS
notes: VHH-Fc fusion in assay
Take B24: the dissociation constant (Kd) is 17.1 nM, the koff is 0.00126 s⁻¹ and the kon stood at 74100 M⁻¹ s⁻¹.

B25: TIGIT-SC206 (Fc fusion)
VHH: EVQLVESGGGLVQPGGSLRLSCAASGFLFDSYVMGWFRQAPGKEREFVAAIWRSGTLKAYADSVKGRFTISADNSKNTAYLQMNGLKPEDTAVYYCAGVGTDYGDYLFNYWGQGTLVTVSS
notes: VHH-Fc fusion in assay
Regarding B25, the dissociation constant (Kd) turned out to be 15.6 nM, the koff worked out at 0.0157 s⁻¹ and the kon was found to be 1e+06 M⁻¹ s⁻¹.

B26: TIGIT-SC208 (Fc fusion)
VHH: EVQLVESGGGLVQPGGSLRLSCAASGFLFDSYVMGWFRQAPGKEREFVAAIWRSGTLKAYADSVKGRFTISADNSKNTEYLQMNSLKPEDTAVYYCARDDYGDTRRYFQHWGQGTLVTVSS
notes: VHH-Fc fusion in assay
With B26, the Kd is 851 nM, the off-rate (koff) was determined as 0.196 s⁻¹ and the kon was determined as 231000 M⁻¹ s⁻¹.

B27: TIGIT-SC209 (Fc fusion)
VHH: B26 VHH with D30N, V33W, T104Y, R106I
notes: VHH-Fc fusion in assay
Regarding B27, the Kd came to 41.4 nM, the koff turned out to be 0.000625 s⁻¹ and the on-rate (kon) is 15100 M⁻¹ s⁻¹.

B28: TIGIT-SC207 (Fc fusion)
VHH: B26 VHH with L28A, D30S
notes: VHH-Fc fusion in assay
For the molecule B28, the dissociation constant (Kd) was found to be 12.2 nM, the dissociation rate constant (koff) worked out at 0.00371 s⁻¹ and the kon is 528000 M⁻¹ s⁻¹.
